Values quoted from earlier work, collected in PMC3981547.
Where two headings read alike, the source gives them in different places.

Key:
IL-2Rβ (Homo sapiens) = IL-2Rβ (Homo sapiens) (UniProt P14784)
γc (Homo sapiens) = γc (Homo sapiens) (UniProt P31785)
IL-2Rβ/γc (Homo sapiens) = IL-2Rβ/γc (Homo sapiens) (UniProt P14784)
IL-2Rα (Homo sapiens) = IL-2Rα (Homo sapiens) (UniProt P01589)
[1] = target: IL-4Rα ECD (Homo sapiens) (UniProt P24394); assay: ITC
IL-13Rα1 (Homo sapiens) [2] = target: IL-13Rα1 (Homo sapiens) (UniProt P78552)
IL-13Rα1 (Homo sapiens) [3] = target: IL-13Rα1 (Homo sapiens) (UniProt P78552); remark: listed apart in the source

Chain of UniProt P78552 (P78552 22-343): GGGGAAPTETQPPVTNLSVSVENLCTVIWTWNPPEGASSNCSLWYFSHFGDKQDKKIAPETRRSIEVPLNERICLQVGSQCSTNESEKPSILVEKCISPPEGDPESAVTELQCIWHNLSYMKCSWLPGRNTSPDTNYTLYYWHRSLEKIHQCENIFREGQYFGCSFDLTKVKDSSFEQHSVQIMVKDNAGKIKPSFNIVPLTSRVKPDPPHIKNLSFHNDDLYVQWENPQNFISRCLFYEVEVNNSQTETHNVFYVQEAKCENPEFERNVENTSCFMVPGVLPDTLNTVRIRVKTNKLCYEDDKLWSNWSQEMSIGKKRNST
Chain of UniProt P31785 (P31785 23-262): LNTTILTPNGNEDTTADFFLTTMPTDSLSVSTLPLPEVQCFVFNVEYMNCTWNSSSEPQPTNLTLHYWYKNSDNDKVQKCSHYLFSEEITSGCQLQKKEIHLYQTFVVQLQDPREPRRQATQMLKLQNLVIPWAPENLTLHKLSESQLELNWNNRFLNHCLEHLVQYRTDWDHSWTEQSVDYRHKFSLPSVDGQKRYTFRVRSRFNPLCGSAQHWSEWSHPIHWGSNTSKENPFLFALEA
Chain of UniProt P24394 (P24394 26-232): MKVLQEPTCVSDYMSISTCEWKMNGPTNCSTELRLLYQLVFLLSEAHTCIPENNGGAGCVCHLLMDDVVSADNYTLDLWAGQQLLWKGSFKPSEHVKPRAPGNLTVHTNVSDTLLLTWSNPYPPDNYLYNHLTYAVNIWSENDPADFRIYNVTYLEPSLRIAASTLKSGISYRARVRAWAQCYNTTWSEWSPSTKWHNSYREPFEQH
Chain of UniProt P01589 (P01589 22-240): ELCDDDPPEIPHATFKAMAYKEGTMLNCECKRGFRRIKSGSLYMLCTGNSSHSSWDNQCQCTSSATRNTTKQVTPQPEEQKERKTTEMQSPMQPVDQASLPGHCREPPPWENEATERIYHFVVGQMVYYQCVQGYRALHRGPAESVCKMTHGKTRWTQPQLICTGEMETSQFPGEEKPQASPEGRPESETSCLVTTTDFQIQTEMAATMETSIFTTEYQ

Which Kd (IL-2Rβ (Homo sapiens)) does the source give for IL-2 (from UniProt P60568) here?
Its Kd is 100 nM.

And the Kd (γc (Homo sapiens))?
Its Kd is 700000 nM.

And the Kd (IL-2Rβ/γc (Homo sapiens))?
Its Kd is 1 nM.

What about the Kd (IL-2Rα (Homo sapiens)) of the same substance?
The Kd was 10 nM.

Which Kd [1] does the source give for IL-4 (from UniProt P05112) here?
Its Kd is 1 nM.

For IL-4/IL-4Rα (from UniProt P05112), which Kd (IL-13Rα1 (Homo sapiens) [2]) is on record?
Its Kd is 487 nM.

For IL-13 (from UniProt P35225), which Kd (IL-13Rα1 (Homo sapiens) [3]) is on record?
The Kd was 30 nM.
